Data from publication doi:10.1101/2021.01.07.425795 (bioRxiv, 2021).

Target: the molecule itself
Assay: SEC

Protein | stoichiometry N
very long chain acyl-CoA dehydrogenase (VLCAD) (enzyme, human, UniProt P49748 41-655, looked up) AGGAAQLALDKSDSHPSDALTRKKPAKAESKSFAVGMFKGQLTTDQVFPYPSVLNEEQTQFLKELVEPVSRFFEEVNDPAKNDALEMVEETTWQGLKELGAFGLQVPSELGGVGLCNTQYARLVEIVGMHDLGVGITLGAHQSIGFKGILLFGTKAQKEKYLPKLASGETVAAFCLTEPSSGSDAASIRTSAVPSPCGKYYTLNGSKLWISNGGLADIFTVFAKTPVTDPATGAVKEKITAFVVERGFGGITHGPPEKKMGIKASNTAEVFFDGVRVPSENVLGEVGSGFKVAMHILNNGRFGMAAALAGTMRGIIAKAVDHATNRTQFGEKIHNFGLIQEKLARMVMLQYVTESMAYMVSANMDQGATDFQIEAAISKIFGSEAAWKVTDECIQIMGGMGFMKEPGVERVLRDLRIFRIFEGTNDILRLFVALQGCMDKGKELSGLGSALKNPFGNAGLLLGEAGKQLRRRAGLGSGLSLSGLVHPELSRSGELAVRALEQFATVVEAKLIKHKKGIVNEQFLLQRLADGAIDLYAMVVVLSRASRSLSEGHPTAQHEKMLCDTWCIEAAARIREGMAALQSDPWQQELYRNFKSISKALVERGGVVTSNPLGF | 2
ACAD9 (wild type, without a tag) (enzyme, human, UniProt Q9H845 38-621, looked up) AFAKELFLGKIKKKEVFPFPEVSQDELNEINQFLGPVEKFFTEEVDSRKIDQEGKIPDETLEKLKSLGLFGLQVPEEYGGLGFSNTMYSRLGEIISMDGSITVTLAAHQAIGLKGIILAGTEEQKAKYLPKLASGEHIAAFCLTEPASGSDAASIRSRATLSEDKKHYILNGSKVWITNGGLANIFTVFAKTEVVDSDGSVKDKITAFIVERDFGGVTNGKPEDKLGIRGSNTCEVHFENTKIPVENILGEVGDGFKVAMNILNSGRFSMGSVVAGLLKRLIEMTAEYACTRKQFNKRLSEFGLIQEKFALMAQKAYVMESMTYLTAGMLDQPGFPDCSIEAAMVKVFSSEAAWQCVSEALQILGGLGYTRDYPYERILRDTRILLIFEGTNEILRMYIALTGLQHAGRILTTRIHELKQAKVSTVMDTVGRRLRDSLGRTVDLGLTGNHGVVHPSLADSANKFEENTYCFGRTVETLLLRFGKTIMEEQLVLKRVANILINLYGMTAVLSRASRSIRIGLRNHDHEVLLANTFCVEAYLQNLFSLSQLDKYAPENLDEQIKKVSQQILEKRAYICAHPLDRTC | 2
ACAD9-His6 (enzyme, human, UniProt Q9H845 38-621, looked up) AFAKELFLGKIKKKEVFPFPEVSQDELNEINQFLGPVEKFFTEEVDSRKIDQEGKIPDETLEKLKSLGLFGLQVPEEYGGLGFSNTMYSRLGEIISMDGSITVTLAAHQAIGLKGIILAGTEEQKAKYLPKLASGEHIAAFCLTEPASGSDAASIRSRATLSEDKKHYILNGSKVWITNGGLANIFTVFAKTEVVDSDGSVKDKITAFIVERDFGGVTNGKPEDKLGIRGSNTCEVHFENTKIPVENILGEVGDGFKVAMNILNSGRFSMGSVVAGLLKRLIEMTAEYACTRKQFNKRLSEFGLIQEKFALMAQKAYVMESMTYLTAGMLDQPGFPDCSIEAAMVKVFSSEAAWQCVSEALQILGGLGYTRDYPYERILRDTRILLIFEGTNEILRMYIALTGLQHAGRILTTRIHELKQAKVSTVMDTVGRRLRDSLGRTVDLGLTGNHGVVHPSLADSANKFEENTYCFGRTVETLLLRFGKTIMEEQLVLKRVANILINLYGMTAVLSRASRSIRIGLRNHDHEVLLANTFCVEAYLQNLFSLSQLDKYAPENLDEQIKKVSQQILEKRAYICAHPLDRTC | 2
ACAD9 Arg469Trp (enzyme, human, UniProt Q9H845 38-621, looked up) AFAKELFLGKIKKKEVFPFPEVSQDELNEINQFLGPVEKFFTEEVDSRKIDQEGKIPDETLEKLKSLGLFGLQVPEEYGGLGFSNTMYSRLGEIISMDGSITVTLAAHQAIGLKGIILAGTEEQKAKYLPKLASGEHIAAFCLTEPASGSDAASIRSRATLSEDKKHYILNGSKVWITNGGLANIFTVFAKTEVVDSDGSVKDKITAFIVERDFGGVTNGKPEDKLGIRGSNTCEVHFENTKIPVENILGEVGDGFKVAMNILNSGRFSMGSVVAGLLKRLIEMTAEYACTRKQFNKRLSEFGLIQEKFALMAQKAYVMESMTYLTAGMLDQPGFPDCSIEAAMVKVFSSEAAWQCVSEALQILGGLGYTRDYPYERILRDTRILLIFEGTNEILRMYIALTGLQHAGRILTTRIHELKQAKVSTVMDTVGWRLRDSLGRTVDLGLTGNHGVVHPSLADSANKFEENTYCFGRTVETLLLRFGKTIMEEQLVLKRVANILINLYGMTAVLSRASRSIRIGLRNHDHEVLLANTFCVEAYLQNLFSLSQLDKYAPENLDEQIKKVSQQILEKRAYICAHPLDRTC | 2
